The values that follow come from publication PMC10357528.

The test addresses SARS-CoV-2 receptor-binding domain, wild-type (SARS-CoV-2) (UniProt P0DTC2). Description: AlphaScreen or HTRF. A general note: Alpha assays give light when donor and acceptor beads are brought close together.

The substance “SARS-CoV-2 receptor-binding domain, wild-type (from UniProt P0DTC2 319-541) (domain or fragment)” gave an AlphaLISA signal of 29000 CPS.
